Reference: PMC9482650, “Quantitative fragmentomics allow affinity mapping of interactomes” (Nature Communications, 2022)

What follows are binders tested against T1, PDZRN3_1, Q9UPQ7 (assay: holdup assay). Settings: plain residues with an end cap or a label only (N-terminal biotin on a linker: ado-ado).
T1 sequence (Q9UPQ7 244-349, limits assumed, looked up): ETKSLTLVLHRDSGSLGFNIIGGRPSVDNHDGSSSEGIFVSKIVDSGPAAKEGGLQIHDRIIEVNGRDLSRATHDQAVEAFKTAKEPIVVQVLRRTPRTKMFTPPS
Design: key: below the threshold = too weak to quantify, mostly under pKd 3.1 to 4
In the case of YRLAQESGLV [ABCC6, O95255], the pKd is reported as “below the threshold”.

Each binder was assayed against FRMPD3, Q5JV73 (assay: holdup assay). Settings: plain residues with an end cap or a label only (N-terminal biotin on a linker: ado-ado).
Chain of FRMPD3, Q5JV73 (Q5JV73 12-100): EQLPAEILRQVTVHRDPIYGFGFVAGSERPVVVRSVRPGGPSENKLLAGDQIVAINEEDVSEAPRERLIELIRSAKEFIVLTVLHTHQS
Design: key: below the threshold = too weak to quantify, mostly under pKd 3.1 to 4
For YRLAQESGLV [ABCC6, O95255], the pKd was “below the threshold”.

What follows are binders tested against LNX1_2, Q8TBB1 (assay: holdup assay). Settings: plain residues with an end cap or a label only (N-terminal biotin on a linker: ado-ado).
Chain of LNX1_2, Q8TBB1 (Q8TBB1 371-470): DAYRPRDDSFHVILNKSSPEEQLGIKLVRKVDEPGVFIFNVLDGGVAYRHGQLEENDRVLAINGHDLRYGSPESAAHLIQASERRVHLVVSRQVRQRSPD
Design: key: below the threshold = too weak to quantify, mostly under pKd 3.1 to 4
YRLAQESGLV [ABCC6, O95255] was tested, and the pKd was “below the threshold”.

These binders were tested against Inadl_1, Q8NI35 (assay: holdup assay). Settings: plain residues with an end cap or a label only (N-terminal biotin on a linker: ado-ado).
Chain of Inadl_1, Q8NI35 (Q8NI35 113-229): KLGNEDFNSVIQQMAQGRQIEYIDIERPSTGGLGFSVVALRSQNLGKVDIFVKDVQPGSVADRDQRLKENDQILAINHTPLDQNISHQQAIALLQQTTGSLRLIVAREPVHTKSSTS
Design: key: below the threshold = too weak to quantify, mostly under pKd 3.1 to 4
With YRLAQESGLV [ABCC6, O95255] the pKd was “below the threshold”.

These binders were tested against MAGI2_6, Q86UL8 (assay: holdup assay). Settings: plain residues with an end cap or a label only (N-terminal biotin on a linker: ado-ado).
Chain of MAGI2_6, Q86UL8 (Q86UL8 1141-1229): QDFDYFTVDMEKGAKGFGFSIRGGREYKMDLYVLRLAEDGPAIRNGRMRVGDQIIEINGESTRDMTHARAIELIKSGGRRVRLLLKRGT
Design: key: below the threshold = too weak to quantify, mostly under pKd 3.1 to 4
With YRLAQESGLV [ABCC6, O95255] the pKd was “below the threshold”.

Each binder was assayed against T2, TX1BP3, O14907 (assay: holdup assay). Settings: plain residues with an end cap or a label only (N-terminal biotin on a linker: ado-ado).
T2 sequence (O14907 10-122, limits assumed, looked up): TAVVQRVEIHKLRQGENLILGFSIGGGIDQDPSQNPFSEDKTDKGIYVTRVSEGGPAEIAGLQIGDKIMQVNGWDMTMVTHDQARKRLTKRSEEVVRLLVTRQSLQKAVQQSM
Design: key: below the threshold = too weak to quantify, mostly under pKd 3.1 to 4
For YRLAQESGLV [ABCC6, O95255], the pKd was “below the threshold”.

Each binder was assayed against T3, APBA2_2, Q99767 (assay: holdup assay). Settings: plain residues with an end cap or a label only (N-terminal biotin on a linker: ado-ado).
T3 sequence (Q99767 654-744, limits assumed, looked up): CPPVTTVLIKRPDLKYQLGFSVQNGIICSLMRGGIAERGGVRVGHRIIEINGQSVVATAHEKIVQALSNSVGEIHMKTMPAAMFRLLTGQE
Design: key: below the threshold = too weak to quantify, mostly under pKd 3.1 to 4
In the case of YRLAQESGLV [ABCC6, O95255], the pKd is reported as “below the threshold”.

Each binder was assayed against SNX27, Q96L92 (assay: holdup assay). Settings: plain residues with an end cap or a label only (N-terminal biotin on a linker: ado-ado).
Design: key: below the threshold = too weak to quantify, mostly under pKd 3.1 to 4
YRLAQESGLV [ABCC6, O95255] was tested, and the pKd was “below the threshold”.

The binders below were run against MAGI2_5, Q86UL8 (assay: holdup assay). Settings: plain residues with an end cap or a label only (N-terminal biotin on a linker: ado-ado).
Chain of MAGI2_5, Q86UL8 (Q86UL8 915-1017): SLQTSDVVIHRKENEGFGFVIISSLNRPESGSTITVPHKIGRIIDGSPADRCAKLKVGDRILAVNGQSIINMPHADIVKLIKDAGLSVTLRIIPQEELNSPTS
Design: key: below the threshold = too weak to quantify, mostly under pKd 3.1 to 4
A pKd of 3.61 was found for YRLAQESGLV [ABCC6, O95255] in this work.

What follows are binders tested against T4, GRIP1_3, Q9Y3R0 (assay: holdup assay). Settings: plain residues with an end cap or a label only (N-terminal biotin on a linker: ado-ado).
T4 sequence (Q9Y3R0 247-346, limits assumed, looked up): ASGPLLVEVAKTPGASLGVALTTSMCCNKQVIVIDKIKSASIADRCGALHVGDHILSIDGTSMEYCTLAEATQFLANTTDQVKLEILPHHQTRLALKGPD
Design: key: below the threshold = too weak to quantify, mostly under pKd 3.1 to 4
For YRLAQESGLV [ABCC6, O95255], the pKd was “below the threshold”.

The binders below were run against GORASP1, Q9BQQ3 (assay: holdup assay). Settings: plain residues with an end cap or a label only (N-terminal biotin on a linker: ado-ado).
Chain of GORASP1, Q9BQQ3 (Q9BQQ3 1-208): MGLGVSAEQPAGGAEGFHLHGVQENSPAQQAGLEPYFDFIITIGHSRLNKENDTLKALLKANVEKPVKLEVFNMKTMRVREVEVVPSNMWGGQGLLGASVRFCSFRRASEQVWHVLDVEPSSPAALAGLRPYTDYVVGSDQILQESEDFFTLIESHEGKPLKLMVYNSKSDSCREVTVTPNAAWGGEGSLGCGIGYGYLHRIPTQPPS
Design: key: below the threshold = too weak to quantify, mostly under pKd 3.1 to 4
YRLAQESGLV [ABCC6, O95255] was tested, and the pKd was “below the threshold”.

What follows are binders tested against T5, GRIP1_5, Q9Y3R0 (assay: holdup assay). Settings: plain residues with an end cap or a label only (N-terminal biotin on a linker: ado-ado).
T5 sequence (Q9Y3R0 568-668, limits assumed, looked up): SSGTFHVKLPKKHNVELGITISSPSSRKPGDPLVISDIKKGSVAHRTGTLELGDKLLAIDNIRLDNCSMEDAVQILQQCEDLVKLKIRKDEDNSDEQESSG
Design: key: below the threshold = too weak to quantify, mostly under pKd 3.1 to 4
With YRLAQESGLV [ABCC6, O95255] the pKd was “below the threshold”.

These binders were tested against SCRIB_2, Q14160 (assay: holdup assay). Settings: plain residues with an end cap or a label only (N-terminal biotin on a linker: ado-ado).
Chain of SCRIB_2, Q14160 (Q14160 857-960): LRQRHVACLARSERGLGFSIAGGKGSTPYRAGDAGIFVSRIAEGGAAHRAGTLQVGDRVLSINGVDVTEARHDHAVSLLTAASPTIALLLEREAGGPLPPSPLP
Design: key: below the threshold = too weak to quantify, mostly under pKd 3.1 to 4
With YRLAQESGLV [ABCC6, O95255] the pKd was “below the threshold”.

These binders were tested against MAGI1_2, Q96QZ7 (assay: holdup assay). Settings: plain residues with an end cap or a label only (N-terminal biotin on a linker: ado-ado).
Chain of MAGI1_2, Q96QZ7 (Q96QZ7 456-580): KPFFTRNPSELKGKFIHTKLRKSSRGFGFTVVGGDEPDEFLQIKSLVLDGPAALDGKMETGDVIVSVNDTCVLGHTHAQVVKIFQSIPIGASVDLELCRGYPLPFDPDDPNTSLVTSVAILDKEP
Design: key: below the threshold = too weak to quantify, mostly under pKd 3.1 to 4
YRLAQESGLV [ABCC6, O95255] was tested, and the pKd was “below the threshold”.

What follows are binders tested against CASK, O14936 (assay: holdup assay). Settings: plain residues with an end cap or a label only (N-terminal biotin on a linker: ado-ado).
Chain of CASK, O14936 (O14936 487-570): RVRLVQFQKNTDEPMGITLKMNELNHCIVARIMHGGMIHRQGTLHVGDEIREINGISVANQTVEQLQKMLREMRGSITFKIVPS
Design: key: below the threshold = too weak to quantify, mostly under pKd 3.1 to 4
In the case of YRLAQESGLV [ABCC6, O95255], the pKd is reported as “below the threshold”.

Each binder was assayed against GRIP2_7, Q9C0E4 (assay: holdup assay). Settings: plain residues with an end cap or a label only (N-terminal biotin on a linker: ado-ado).
Chain of GRIP2_7, Q9C0E4 (Q9C0E4 934-1023): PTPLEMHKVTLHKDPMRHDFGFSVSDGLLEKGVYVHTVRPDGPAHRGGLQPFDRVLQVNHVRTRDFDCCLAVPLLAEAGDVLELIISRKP
Design: key: below the threshold = too weak to quantify, mostly under pKd 3.1 to 4
YRLAQESGLV [ABCC6, O95255] was tested, and the pKd was “below the threshold”.

Each binder was assayed against MAGI1_1, Q96QZ7 (assay: holdup assay). Settings: plain residues with an end cap or a label only (N-terminal biotin on a linker: ado-ado).
Chain of MAGI1_1, Q96QZ7 (Q96QZ7 1-106): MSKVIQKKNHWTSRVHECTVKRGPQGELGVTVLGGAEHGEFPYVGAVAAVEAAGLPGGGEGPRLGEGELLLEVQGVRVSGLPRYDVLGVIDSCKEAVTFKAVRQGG
Design: key: below the threshold = too weak to quantify, mostly under pKd 3.1 to 4
With YRLAQESGLV [ABCC6, O95255] the pKd was “below the threshold”.

Each binder was assayed against LNX1_3, Q8TBB1 (assay: holdup assay). Settings: plain residues with an end cap or a label only (N-terminal biotin on a linker: ado-ado).
Chain of LNX1_3, Q8TBB1 (Q8TBB1 500-596): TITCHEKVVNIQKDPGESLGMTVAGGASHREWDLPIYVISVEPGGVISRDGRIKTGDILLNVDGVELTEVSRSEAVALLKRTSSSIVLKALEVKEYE
Design: key: below the threshold = too weak to quantify, mostly under pKd 3.1 to 4
In the case of YRLAQESGLV [ABCC6, O95255], the pKd is reported as “below the threshold”.

What follows are binders tested against T6, SNTB1, Q13884 (assay: holdup assay). Settings: plain residues with an end cap or a label only (N-terminal biotin on a linker: ado-ado).
T6 sequence (Q13884 107-205, limits assumed, looked up): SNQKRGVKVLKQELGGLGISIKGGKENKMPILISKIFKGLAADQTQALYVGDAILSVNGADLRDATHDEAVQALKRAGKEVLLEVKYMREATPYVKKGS
Design: key: below the threshold = too weak to quantify, mostly under pKd 3.1 to 4
A pKd of 3.57 was found for YRLAQESGLV [ABCC6, O95255] in this work.

These binders were tested against T7, RADIL, Q96JH8 (assay: holdup assay). Settings: plain residues with an end cap or a label only (N-terminal biotin on a linker: ado-ado).
T7 sequence (Q96JH8 971-1071, limits assumed, looked up): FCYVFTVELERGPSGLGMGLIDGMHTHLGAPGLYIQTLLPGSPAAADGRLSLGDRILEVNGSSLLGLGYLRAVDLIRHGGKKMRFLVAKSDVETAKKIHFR
Design: key: below the threshold = too weak to quantify, mostly under pKd 3.1 to 4
A pKd of 4.22 was found for YRLAQESGLV [ABCC6, O95255] in this work.

Each binder was assayed against DLG4_2, P78352 (assay: holdup assay). Settings: plain residues with an end cap or a label only (N-terminal biotin on a linker: ado-ado).
Chain of DLG4_2, P78352 (P78352 155-259): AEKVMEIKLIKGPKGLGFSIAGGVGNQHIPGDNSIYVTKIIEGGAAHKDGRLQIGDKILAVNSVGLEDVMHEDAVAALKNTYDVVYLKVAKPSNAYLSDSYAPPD
Design: key: below the threshold = too weak to quantify, mostly under pKd 3.1 to 4
A pKd of 3.55 was found for YRLAQESGLV [ABCC6, O95255] in this work.

The binders below were run against IL16_4, Q14005 (assay: holdup assay). Settings: plain residues with an end cap or a label only (N-terminal biotin on a linker: ado-ado).
Chain of IL16_4, Q14005 (Q14005 1229-1329): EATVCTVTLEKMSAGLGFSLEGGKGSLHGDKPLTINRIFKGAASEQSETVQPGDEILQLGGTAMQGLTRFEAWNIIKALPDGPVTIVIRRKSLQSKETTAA
Design: key: below the threshold = too weak to quantify, mostly under pKd 3.1 to 4
In the case of YRLAQESGLV [ABCC6, O95255], the pKd is reported as “below the threshold”.

Each binder was assayed against LNX1_1, Q8TBB1 (assay: holdup assay). Settings: plain residues with an end cap or a label only (N-terminal biotin on a linker: ado-ado).
Chain of LNX1_1, Q8TBB1 (Q8TBB1 261-371): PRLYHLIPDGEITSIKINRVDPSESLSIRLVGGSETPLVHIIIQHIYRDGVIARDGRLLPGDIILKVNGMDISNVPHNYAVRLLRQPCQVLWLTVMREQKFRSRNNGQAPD
Design: key: below the threshold = too weak to quantify, mostly under pKd 3.1 to 4
For YRLAQESGLV [ABCC6, O95255], the pKd was “below the threshold”.

Each binder was assayed against Inadl_6, Q8NI35 (assay: holdup assay). Settings: plain residues with an end cap or a label only (N-terminal biotin on a linker: ado-ado).
Chain of Inadl_6, Q8NI35 (Q8NI35 1058-1167): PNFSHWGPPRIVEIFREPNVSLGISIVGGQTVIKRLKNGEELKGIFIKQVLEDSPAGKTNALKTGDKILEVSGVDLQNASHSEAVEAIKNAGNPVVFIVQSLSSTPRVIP
Design: key: below the threshold = too weak to quantify, mostly under pKd 3.1 to 4
YRLAQESGLV [ABCC6, O95255] was tested, and the pKd was “below the threshold”.

These binders were tested against PICK1, Q9NRD5 (assay: holdup assay). Settings: plain residues with an end cap or a label only (N-terminal biotin on a linker: ado-ado).
Chain of PICK1, Q9NRD5 (Q9NRD5 17-115): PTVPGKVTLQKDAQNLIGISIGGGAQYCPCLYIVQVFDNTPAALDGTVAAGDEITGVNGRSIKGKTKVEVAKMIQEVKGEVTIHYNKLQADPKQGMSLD
Design: key: below the threshold = too weak to quantify, mostly under pKd 3.1 to 4
A pKd of 4.19 was found for YRLAQESGLV [ABCC6, O95255] in this work.

What follows are binders tested against PDZRN4_1, Q6ZMN7 (assay: holdup assay). Settings: plain residues with an end cap or a label only (N-terminal biotin on a linker: ado-ado).
Chain of PDZRN4_1, Q6ZMN7 (Q6ZMN7 213-318): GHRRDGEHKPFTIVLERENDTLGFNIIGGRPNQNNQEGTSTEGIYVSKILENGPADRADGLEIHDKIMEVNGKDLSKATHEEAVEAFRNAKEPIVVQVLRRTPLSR
Design: key: below the threshold = too weak to quantify, mostly under pKd 3.1 to 4
For YRLAQESGLV [ABCC6, O95255], the pKd was “below the threshold”.

The binders below were run against DLG4_3, P78352 (assay: holdup assay). Settings: plain residues with an end cap or a label only (N-terminal biotin on a linker: ado-ado).
Chain of DLG4_3, P78352 (P78352 306-403): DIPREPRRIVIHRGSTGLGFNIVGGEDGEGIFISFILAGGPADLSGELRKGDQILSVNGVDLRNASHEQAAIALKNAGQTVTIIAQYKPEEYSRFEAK
Design: key: below the threshold = too weak to quantify, mostly under pKd 3.1 to 4
In the case of YRLAQESGLV [ABCC6, O95255], the pKd is reported as “below the threshold”.

Each binder was assayed against SCRIB_3, Q14160 (assay: holdup assay). Settings: plain residues with an end cap or a label only (N-terminal biotin on a linker: ado-ado).
Chain of SCRIB_3, Q14160 (Q14160 999-1103): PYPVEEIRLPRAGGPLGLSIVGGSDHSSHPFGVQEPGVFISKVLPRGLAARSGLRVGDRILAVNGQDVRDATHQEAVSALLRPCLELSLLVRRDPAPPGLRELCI
Design: key: below the threshold = too weak to quantify, mostly under pKd 3.1 to 4
In the case of YRLAQESGLV [ABCC6, O95255], the pKd is reported as “below the threshold”.

What follows are binders tested against GRIP2_4, Q9C0E4 (assay: holdup assay). Settings: plain residues with an end cap or a label only (N-terminal biotin on a linker: ado-ado).
Chain of GRIP2_4, Q9C0E4 (Q9C0E4 446-548): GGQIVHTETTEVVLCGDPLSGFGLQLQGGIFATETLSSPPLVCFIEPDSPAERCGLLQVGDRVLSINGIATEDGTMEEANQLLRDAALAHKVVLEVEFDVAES
Design: key: below the threshold = too weak to quantify, mostly under pKd 3.1 to 4
YRLAQESGLV [ABCC6, O95255] was tested, and the pKd was “below the threshold”.

The binders below were run against FRMPD4, Q14CM0 (assay: holdup assay). Settings: plain residues with an end cap or a label only (N-terminal biotin on a linker: ado-ado).
Chain of FRMPD4, Q14CM0 (Q14CM0 67-160): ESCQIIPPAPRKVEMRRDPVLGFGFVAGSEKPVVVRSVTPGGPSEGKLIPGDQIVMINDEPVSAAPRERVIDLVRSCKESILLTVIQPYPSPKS
Design: key: below the threshold = too weak to quantify, mostly under pKd 3.1 to 4
With YRLAQESGLV [ABCC6, O95255] the pKd was “below the threshold”.
